In patent publication US7935795 (EVEC, dated 2011) one finds Kd data, which are given here for one molecule.

The assay has as its target T1, recombinant human granulocyte-macrophage colony stimulating factor (hGM-CSF) (human, UniProt P04141 18-144).
T1 construct: also called recombinant GM-CSF; recombinant hGM-CSF
Description: BIAcore, antibody immobilised on sensor chip, recombinant hGM-CSF as analyte. On the procedure: Affinity analysis was conducted on the anti-hGM-CSF antibody applying BIAcore® system (FIG. 4). In the method, the antibody (purified antibody) was immobilized to a sensor chip, and then an antigen (recombinant) was added to the surface of the immobilized antibody, so that the interaction between antibody and an antigen was measured. A purified antibody was applied to the antibody, and a recombinant hGM-CSF was applied to the antigen. A mouse anti-GM-CSF monoclonal antibody (commercially available) (R&D) was applied to a positive control, and a purified anti-human cytomegalovirus monoclonal antibody was applied to a negative control. After the analysis, it turned out that antigen-antibody interaction was not detected in the negative control. In the positive control, dissociation constant of 6.1×10^-9 M is shown as the affinity. The affinity of the anti-GM-CSF antibody obtained was 2.1×10^-10 M (FIG. 5).
For orientation: Surface plasmon resonance follows binding to a sensor surface in real time, without labels.

T1 sequence (P04141 18-144 limits assumed): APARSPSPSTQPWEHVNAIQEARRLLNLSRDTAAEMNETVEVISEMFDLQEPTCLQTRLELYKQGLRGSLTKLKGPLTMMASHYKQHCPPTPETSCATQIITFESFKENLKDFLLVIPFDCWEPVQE

B1: anti-hGM-CSF human monoclonal antibody J158 4C (antibody, human IgG1, kappa, V domains shown)
VH: LVQLVQSEAEVKKPGASVRISCRTSGYIFPTFALHWVRQAPGQSLEWVGSINTASGKTKFSTKFQDRLTLSSNTSATTVYMDLSGLTLDDTALYYCARDRFQNIMATILDVWGQGTLVTVSS
VL: DIVLTQSPGTLSLSPGERVTVSCRASHRVSSNYLAWYQQRPGQSPRLLIFGASNRATGVPDRFSGSGSGTDFALTISRLEPDDFAVYYCQQYASSPVTFGGGTKLEIKR
notes: also called anti-hGM-CSF antibody; anti-GM-CSF antibody
As usually defined, the Kd is the free concentration of one partner at which half of the binding sites on the other are occupied at equilibrium, for simple one-to-one binding. Regarding B1, the Kd came out at 0.21 nM.
